Consider 1 substance from publication PMC6123398.

In assay [1] the target is human FcγRIIIa-Val158, soluble ectodomain (human). Description: SPR; FcγRIIIa ectodomains immobilised on Series S CM5 chips by amine coupling (Phe158 560 RU, Val158 260 RU); Biacore T200; antibody injected (Rituxan 21,870-30 nM, recombinant mAb 810-3.333 nM, threefold dilutions); blank surface and buffer subtracted; 1:1 Langmuir binding model. On the technique in general: SPR reads the build-up and loss of mass on a sensor chip optically.

Assay [2] has as its target human FcγRIIIa-Phe158, soluble ectodomain (human) (UniProt P08637). The assay is described as above.

The Kd is a measure of binding affinity in units of concentration. The koff is a measure of how fast the partners let go of each other. As usually defined, the kon is a measure of how fast the partners come together.

Chain of UniProt P08637 (P08637 17-208): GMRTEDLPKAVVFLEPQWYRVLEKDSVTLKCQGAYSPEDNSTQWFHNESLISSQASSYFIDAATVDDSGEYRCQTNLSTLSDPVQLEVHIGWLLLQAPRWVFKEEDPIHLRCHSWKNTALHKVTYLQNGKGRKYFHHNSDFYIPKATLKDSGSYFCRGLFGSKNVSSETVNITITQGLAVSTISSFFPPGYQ

For the substance Rituxan (antibody), in assay [1], the Kd was 0.94 µM, the koff was determined as 0.043 s⁻¹ and the kon is 46000 M⁻¹ s⁻¹. In assay [2], the Kd was 6.8 µM, the off-rate constant (koff) was 0.17 s⁻¹ and the kon came out at 25000 M⁻¹ s⁻¹.
